PMC9482650, “Quantitative fragmentomics allow affinity mapping of interactomes” (Nature Communications, 2022)

T1: PCLO, Q9Y6V0
T1 sequence (Q9Y6V0 4491-4600, limits assumed, looked up): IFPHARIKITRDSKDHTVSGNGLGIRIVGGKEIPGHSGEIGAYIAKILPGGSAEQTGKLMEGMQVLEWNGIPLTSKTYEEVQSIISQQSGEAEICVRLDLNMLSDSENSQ

T2: MPP2, Q14168
T2 sequence (Q14168 180-250, limits assumed, looked up): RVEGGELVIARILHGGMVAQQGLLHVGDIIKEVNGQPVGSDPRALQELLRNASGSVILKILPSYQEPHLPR

T3: DVL3, Q92997
T3 sequence (Q92997 244-331, limits assumed, looked up): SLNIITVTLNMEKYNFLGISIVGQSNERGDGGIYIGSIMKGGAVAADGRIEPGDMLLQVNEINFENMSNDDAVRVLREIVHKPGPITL

T4: HTRA4, P83105
T4 sequence (P83105 378-476, limits assumed, looked up): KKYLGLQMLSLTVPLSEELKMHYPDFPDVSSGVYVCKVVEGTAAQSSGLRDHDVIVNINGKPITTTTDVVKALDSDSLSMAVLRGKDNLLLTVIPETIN

T5: NHERF3_3, Q5T2W1
T5 sequence (Q5T2W1 238-333, limits assumed, looked up): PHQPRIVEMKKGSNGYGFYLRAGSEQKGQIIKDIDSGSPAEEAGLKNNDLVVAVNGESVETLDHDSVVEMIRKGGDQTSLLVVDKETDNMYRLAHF

T6: DFNB31_1, Q9P202
T6 sequence (Q9P202 135-233, limits assumed, looked up): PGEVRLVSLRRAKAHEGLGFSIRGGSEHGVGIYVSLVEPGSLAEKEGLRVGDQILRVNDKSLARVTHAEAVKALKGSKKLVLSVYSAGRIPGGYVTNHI

T7: APBA1_1, Q02410
T7 sequence (Q02410 651-752, limits assumed, looked up): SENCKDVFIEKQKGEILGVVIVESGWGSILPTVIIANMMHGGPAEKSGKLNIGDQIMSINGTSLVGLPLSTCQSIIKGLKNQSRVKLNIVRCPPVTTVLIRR

T8: TJP3_3, O95049
T8 sequence (O95049 375-456, limits assumed, looked up): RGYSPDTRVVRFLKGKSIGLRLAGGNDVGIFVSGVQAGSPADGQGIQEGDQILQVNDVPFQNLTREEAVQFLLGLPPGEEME

T9: FRMPD1, Q5SYB0
T9 sequence (Q5SYB0 52-145, limits assumed, looked up): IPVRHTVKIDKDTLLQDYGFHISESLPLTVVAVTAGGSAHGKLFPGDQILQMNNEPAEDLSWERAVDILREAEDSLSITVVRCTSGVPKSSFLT

T10: NHERF3_1, Q5T2W1
T10 sequence (Q5T2W1 4-100, limits assumed, looked up): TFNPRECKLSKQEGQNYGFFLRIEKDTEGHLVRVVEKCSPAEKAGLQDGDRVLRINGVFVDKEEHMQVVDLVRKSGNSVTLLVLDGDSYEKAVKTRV

T11: MPP6, Q9NZW5
T11 sequence (Q9NZW5 125-219, limits assumed, looked up): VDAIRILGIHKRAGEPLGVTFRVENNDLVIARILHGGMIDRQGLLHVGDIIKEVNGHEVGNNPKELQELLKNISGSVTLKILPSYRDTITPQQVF

T12: MPP7, Q5T2T1
T12 sequence (Q5T2T1 134-230, limits assumed, looked up): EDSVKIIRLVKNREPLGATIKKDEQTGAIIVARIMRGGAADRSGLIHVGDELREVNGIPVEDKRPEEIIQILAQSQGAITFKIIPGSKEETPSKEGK

B1: CYSLTR2, Q9NS75 (peptide)
chain: SVWLRKETRV
B2: HPV67-E6, A4U7F2 (peptide)
chain: SRPQRTQTQV
B3: NF2, P35240 (peptide)
chain: KSRVAFFEEL

target: T1, PCLO, Q9Y6V0; assay: holdup assay; design: key: below the threshold = too weak to quantify, mostly under pKd 3.1 to 4; details: plain residues with an end cap or a label only (N-terminal biotin on a linker: ttds)

| Binder | pKd |
| --- | --- |
| B1 | below the threshold |
| B2 | below the threshold |

target: T2, MPP2, Q14168; assay: holdup assay; design: key: below the threshold = too weak to quantify, mostly under pKd 3.1 to 4; details: plain residues with an end cap or a label only (N-terminal biotin on a linker: ttds)

| Binder | pKd |
| --- | --- |
| B1 | below the threshold |
| B2 | below the threshold |

target: MAST1, Q9Y2H9; assay: holdup assay; design: key: below the threshold = too weak to quantify, mostly under pKd 3.1 to 4; details: plain residues with an end cap or a label only (N-terminal biotin on a linker: ttds)
Sequence (Q9Y2H9 962-1065): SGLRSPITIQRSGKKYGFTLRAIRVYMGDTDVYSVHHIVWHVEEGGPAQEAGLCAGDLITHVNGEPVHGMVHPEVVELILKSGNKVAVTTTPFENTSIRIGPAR

| Binder | pKd |
| --- | --- |
| B1 | 5.29 |
| B2 | 4.47 |

target: ARHGEF12, Q9NZN5-2; assay: holdup assay; design: key: below the threshold = too weak to quantify, mostly under pKd 3.1 to 4; details: plain residues with an end cap or a label only (N-terminal biotin on a linker: ttds)
Sequence (Q9NZN5 other isoform, or with tags, fused parts or gaps): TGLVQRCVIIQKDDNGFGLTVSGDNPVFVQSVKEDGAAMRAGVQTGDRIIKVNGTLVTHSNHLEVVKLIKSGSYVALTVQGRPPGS

| Binder | pKd |
| --- | --- |
| B1 | 4.23 |
| B2 | 4 |

target: Inadl_2, Q8NI35; assay: holdup assay; design: key: below the threshold = too weak to quantify, mostly under pKd 3.1 to 4; details: plain residues with an end cap or a label only (N-terminal biotin on a linker: ttds)
Sequence (Q8NI35 238-335): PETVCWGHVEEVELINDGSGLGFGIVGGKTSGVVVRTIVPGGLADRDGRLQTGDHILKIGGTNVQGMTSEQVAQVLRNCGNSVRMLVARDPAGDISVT

| Binder | pKd |
| --- | --- |
| B1 | below the threshold |
| B2 | below the threshold |

target: Inadl_9, Q8NI35; assay: holdup assay; design: key: below the threshold = too weak to quantify, mostly under pKd 3.1 to 4; details: plain residues with an end cap or a label only (N-terminal biotin on a linker: ttds)
Sequence (Q8NI35 1530-1615): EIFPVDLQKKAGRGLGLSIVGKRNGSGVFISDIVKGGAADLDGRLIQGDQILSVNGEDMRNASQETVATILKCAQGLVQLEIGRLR

| Binder | pKd |
| --- | --- |
| B1 | 3.39 |
| B2 | below the threshold |

target: NHERF4_2, Q86UT5; assay: holdup assay; design: key: below the threshold = too weak to quantify, mostly under pKd 3.1 to 4; details: plain residues with an end cap or a label only (N-terminal biotin on a linker: ado-ado)
Sequence (Q86UT5 220-308): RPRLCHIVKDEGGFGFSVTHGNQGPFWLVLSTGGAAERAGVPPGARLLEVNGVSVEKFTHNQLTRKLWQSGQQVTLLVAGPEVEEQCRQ

| Binder | pKd |
| --- | --- |
| B3 | 3.66 |

same assay, conditions: plain residues with an end cap or a label only (N-terminal biotin on a linker: ttds)

| Binder | pKd |
| --- | --- |
| B1 | below the threshold |
| B2 | below the threshold |

target: LNX1_2, Q8TBB1; assay: holdup assay; design: key: below the threshold = too weak to quantify, mostly under pKd 3.1 to 4; details: plain residues with an end cap or a label only (N-terminal biotin on a linker: ttds)
Sequence (Q8TBB1 371-470): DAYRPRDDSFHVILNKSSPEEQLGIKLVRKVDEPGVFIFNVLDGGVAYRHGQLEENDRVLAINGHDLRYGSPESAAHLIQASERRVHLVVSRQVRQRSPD

| Binder | pKd |
| --- | --- |
| B1 | 3.4 |
| B2 | below the threshold |

target: PDLIM1, O00151; assay: holdup assay; design: key: below the threshold = too weak to quantify, mostly under pKd 3.1 to 4; details: plain residues with an end cap or a label only (N-terminal biotin on a linker: ado-ado)
Sequence (O00151 1-87): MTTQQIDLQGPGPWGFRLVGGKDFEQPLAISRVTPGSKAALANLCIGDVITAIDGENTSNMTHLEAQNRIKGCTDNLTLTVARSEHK

| Binder | pKd |
| --- | --- |
| B3 | 3.76 |

same assay, conditions: plain residues with an end cap or a label only (N-terminal biotin on a linker: ttds)

| Binder | pKd |
| --- | --- |
| B1 | below the threshold |
| B2 | below the threshold |

target: AHNAK1, Q09666; assay: holdup assay; design: key: below the threshold = too weak to quantify, mostly under pKd 3.1 to 4; details: plain residues with an end cap or a label only (N-terminal biotin on a linker: ttds)
Sequence (Q09666 4-100): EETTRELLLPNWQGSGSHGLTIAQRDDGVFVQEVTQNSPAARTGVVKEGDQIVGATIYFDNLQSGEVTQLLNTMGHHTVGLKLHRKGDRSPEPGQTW

| Binder | pKd |
| --- | --- |
| B1 | below the threshold |
| B2 | below the threshold |

target: T3, DVL3, Q92997; assay: holdup assay; design: key: below the threshold = too weak to quantify, mostly under pKd 3.1 to 4; details: plain residues with an end cap or a label only (N-terminal biotin on a linker: ado-ado)

| Binder | pKd |
| --- | --- |
| B3 | 3.49 |

same assay, conditions: plain residues with an end cap or a label only (N-terminal biotin on a linker: ttds)

| Binder | pKd |
| --- | --- |
| B1 | below the threshold |
| B2 | below the threshold |

target: T4, HTRA4, P83105; assay: holdup assay; design: key: below the threshold = too weak to quantify, mostly under pKd 3.1 to 4; details: plain residues with an end cap or a label only (N-terminal biotin on a linker: ttds)

| Binder | pKd |
| --- | --- |
| B1 | 3.38 |
| B2 | below the threshold |

target: T5, NHERF3_3, Q5T2W1; assay: holdup assay; design: key: below the threshold = too weak to quantify, mostly under pKd 3.1 to 4; details: plain residues with an end cap or a label only (N-terminal biotin on a linker: ttds)

| Binder | pKd |
| --- | --- |
| B1 | 3.52 |
| B2 | below the threshold |

target: T6, DFNB31_1, Q9P202; assay: holdup assay; design: key: below the threshold = too weak to quantify, mostly under pKd 3.1 to 4; details: plain residues with an end cap or a label only (N-terminal biotin on a linker: ado-ado)

| Binder | pKd |
| --- | --- |
| B3 | 3.64 |

same assay, conditions: plain residues with an end cap or a label only (N-terminal biotin on a linker: ttds)

| Binder | pKd |
| --- | --- |
| B1 | 4.03 |
| B2 | below the threshold |

target: NHERF4_1, Q86UT5-2; assay: holdup assay; design: key: below the threshold = too weak to quantify, mostly under pKd 3.1 to 4; details: plain residues with an end cap or a label only (N-terminal biotin on a linker: ttds)
Sequence (Q86UT5 other isoform, or with tags, fused parts or gaps): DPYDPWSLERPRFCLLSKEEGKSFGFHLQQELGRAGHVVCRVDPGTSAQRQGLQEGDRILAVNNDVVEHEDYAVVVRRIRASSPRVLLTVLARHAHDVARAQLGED

| Binder | pKd |
| --- | --- |
| B1 | below the threshold |
| B2 | below the threshold |

target: LDB3, O75112; assay: holdup assay; design: key: below the threshold = too weak to quantify, mostly under pKd 3.1 to 4; details: plain residues with an end cap or a label only (N-terminal biotin on a linker: ado-ado)
Sequence (O75112 1-94): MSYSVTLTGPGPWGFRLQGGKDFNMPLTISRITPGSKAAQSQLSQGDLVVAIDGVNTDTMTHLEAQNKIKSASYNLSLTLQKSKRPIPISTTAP

| Binder | pKd |
| --- | --- |
| B3 | 3.9 |

same assay, conditions: plain residues with an end cap or a label only (N-terminal biotin on a linker: ttds)

| Binder | pKd |
| --- | --- |
| B1 | below the threshold |
| B2 | below the threshold |

target: T7, APBA1_1, Q02410; assay: holdup assay; design: key: below the threshold = too weak to quantify, mostly under pKd 3.1 to 4; details: plain residues with an end cap or a label only (N-terminal biotin on a linker: ttds)

| Binder | pKd |
| --- | --- |
| B1 | below the threshold |
| B2 | below the threshold |

target: T8, TJP3_3, O95049; assay: holdup assay; design: key: below the threshold = too weak to quantify, mostly under pKd 3.1 to 4; details: plain residues with an end cap or a label only (N-terminal biotin on a linker: ttds)

| Binder | pKd |
| --- | --- |
| B1 | 3.37 |
| B2 | below the threshold |

target: DLG4_1, P78352; assay: holdup assay; design: key: below the threshold = too weak to quantify, mostly under pKd 3.1 to 4; details: plain residues with an end cap or a label only (N-terminal biotin on a linker: ado-ado)
Sequence (P78352 62-152): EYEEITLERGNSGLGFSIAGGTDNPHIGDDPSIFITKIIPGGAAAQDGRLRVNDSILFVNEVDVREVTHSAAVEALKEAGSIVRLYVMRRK

| Binder | pKd |
| --- | --- |
| B3 | 3.63 |

same assay, conditions: plain residues with an end cap or a label only (N-terminal biotin on a linker: ttds)

| Binder | pKd |
| --- | --- |
| B1 | 4.92 |
| B2 | 4.58 |

target: SCRIB_3, Q14160; assay: holdup assay; design: key: below the threshold = too weak to quantify, mostly under pKd 3.1 to 4; details: plain residues with an end cap or a label only (N-terminal biotin on a linker: ado-ado)
Sequence (Q14160 999-1103): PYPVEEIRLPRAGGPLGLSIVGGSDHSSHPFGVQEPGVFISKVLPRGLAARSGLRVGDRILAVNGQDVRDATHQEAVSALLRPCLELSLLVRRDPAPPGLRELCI

| Binder | pKd |
| --- | --- |
| B3 | 3.7 |

same assay, conditions: plain residues with an end cap or a label only (N-terminal biotin on a linker: ttds)

| Binder | pKd |
| --- | --- |
| B1 | 4.85 |
| B2 | 3.93 |

target: T9, FRMPD1, Q5SYB0; assay: holdup assay; design: key: below the threshold = too weak to quantify, mostly under pKd 3.1 to 4; details: plain residues with an end cap or a label only (N-terminal biotin on a linker: ttds)

| Binder | pKd |
| --- | --- |
| B1 | below the threshold |
| B2 | below the threshold |

target: SCRIB_2, Q14160; assay: holdup assay; design: key: below the threshold = too weak to quantify, mostly under pKd 3.1 to 4; details: plain residues with an end cap or a label only (N-terminal biotin on a linker: ttds)
Sequence (Q14160 857-960): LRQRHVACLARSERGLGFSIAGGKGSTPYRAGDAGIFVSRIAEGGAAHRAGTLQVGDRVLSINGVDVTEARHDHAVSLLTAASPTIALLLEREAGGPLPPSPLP

| Binder | pKd |
| --- | --- |
| B1 | 4.42 |
| B2 | 3.4 |

target: T10, NHERF3_1, Q5T2W1; assay: holdup assay; design: key: below the threshold = too weak to quantify, mostly under pKd 3.1 to 4; details: plain residues with an end cap or a label only (N-terminal biotin on a linker: ttds)

| Binder | pKd |
| --- | --- |
| B1 | 4.8 |
| B2 | 3.98 |

target: T11, MPP6, Q9NZW5; assay: holdup assay; design: key: below the threshold = too weak to quantify, mostly under pKd 3.1 to 4; details: plain residues with an end cap or a label only (N-terminal biotin on a linker: ttds)

| Binder | pKd |
| --- | --- |
| B1 | below the threshold |
| B2 | below the threshold |

target: MAST2, Q6P0Q8; assay: holdup assay; design: key: below the threshold = too weak to quantify, mostly under pKd 3.1 to 4; details: plain residues with an end cap or a label only (N-terminal biotin on a linker: ttds)
Sequence (Q6P0Q8 1099-1202): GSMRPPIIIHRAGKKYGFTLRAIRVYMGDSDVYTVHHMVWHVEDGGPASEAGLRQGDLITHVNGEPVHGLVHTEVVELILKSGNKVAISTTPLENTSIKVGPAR

| Binder | pKd |
| --- | --- |
| B1 | 5.27 |
| B2 | 5.27 |

target: T12, MPP7, Q5T2T1; assay: holdup assay; design: key: below the threshold = too weak to quantify, mostly under pKd 3.1 to 4; details: plain residues with an end cap or a label only (N-terminal biotin on a linker: ttds)

| Binder | pKd |
| --- | --- |
| B1 | below the threshold |
| B2 | below the threshold |
